In publication PMC10456876:
Read-outs that look alike come from different tables or passages of the source.

Key:
[1] = molecular target: human telomeric nucleosome core particle (teloNCP) (human) (UniProt P68431); experiment: cryo-EM structure; TRF1core-teloNCP complex from the glycerol gradient, cross-linked with 0.5 mM BS3; 2:1 complex at 2.7 Å, 4:1 complex at 6.7 Å (rigid-body docking)
[2] = molecular target: human telomeric nucleosome core particle (teloNCP) (human) (UniProt P68431); experiment: as above; remark: listed apart in the source
[3] = molecular target: human telomeric nucleosome core particle (teloNCP), P68431;P62805;P04908;P06899; experiment: EMSA; details: point at 200 nM TRF1core; triplicate; parent: est. 100; read off a plot

Sequence of wild-type MBP-tagged TRF1core (TRF1-TIN2-TPP1) (Q9BSI4 whole entry, looked up): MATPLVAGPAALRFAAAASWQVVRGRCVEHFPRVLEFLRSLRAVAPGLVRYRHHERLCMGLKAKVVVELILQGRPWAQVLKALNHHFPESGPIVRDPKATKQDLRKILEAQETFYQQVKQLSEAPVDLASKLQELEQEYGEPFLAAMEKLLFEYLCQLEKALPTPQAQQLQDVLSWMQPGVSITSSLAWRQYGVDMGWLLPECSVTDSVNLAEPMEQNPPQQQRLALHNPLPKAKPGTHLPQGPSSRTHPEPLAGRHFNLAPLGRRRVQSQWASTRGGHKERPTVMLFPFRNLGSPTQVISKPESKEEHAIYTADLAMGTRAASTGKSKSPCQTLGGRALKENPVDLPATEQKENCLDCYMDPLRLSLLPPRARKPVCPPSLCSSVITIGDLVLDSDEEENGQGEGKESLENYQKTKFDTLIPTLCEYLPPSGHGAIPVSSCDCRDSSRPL
Sequence of wild-type MBP-tagged TRF1core (TRF1-TIN2-TPP1) (P54274 whole entry, looked up, stated change not applied): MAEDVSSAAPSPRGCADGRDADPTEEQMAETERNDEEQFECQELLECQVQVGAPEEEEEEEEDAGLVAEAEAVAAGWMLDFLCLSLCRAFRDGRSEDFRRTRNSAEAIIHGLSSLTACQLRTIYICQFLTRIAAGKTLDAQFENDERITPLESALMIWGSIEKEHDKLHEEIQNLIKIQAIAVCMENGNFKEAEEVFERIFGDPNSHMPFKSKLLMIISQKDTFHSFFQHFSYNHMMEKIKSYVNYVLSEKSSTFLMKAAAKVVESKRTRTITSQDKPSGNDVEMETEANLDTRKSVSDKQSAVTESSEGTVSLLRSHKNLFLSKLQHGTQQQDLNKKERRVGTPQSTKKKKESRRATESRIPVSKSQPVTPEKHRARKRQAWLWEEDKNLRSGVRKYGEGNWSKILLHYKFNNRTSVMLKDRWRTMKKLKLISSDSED

“shelterin TRF1-TIN2-TPP1 subcomplex (TRF1core), untagged (from UniProt P54274 1-439; Q9BSI4 1-451)” gave a TRF1 Myb domains bound per teloNCP [1] of 4 and a TRF1 Myb domains bound per teloNCP [2] of 2.

“wild-type MBP-tagged TRF1core (TRF1-TIN2-TPP1) (from UniProt P54274;Q9BSI4) S434A; S435A; S437A” showed a response [3] of 17 % Bound.
